Kd data for two substances are collected here from paper PMC8937303.

The target in this assay is pFGFR2_(Cyto) (UniProt P21802). Description: MST.
pFGFR2_(Cyto), sequence (P21802 400-821): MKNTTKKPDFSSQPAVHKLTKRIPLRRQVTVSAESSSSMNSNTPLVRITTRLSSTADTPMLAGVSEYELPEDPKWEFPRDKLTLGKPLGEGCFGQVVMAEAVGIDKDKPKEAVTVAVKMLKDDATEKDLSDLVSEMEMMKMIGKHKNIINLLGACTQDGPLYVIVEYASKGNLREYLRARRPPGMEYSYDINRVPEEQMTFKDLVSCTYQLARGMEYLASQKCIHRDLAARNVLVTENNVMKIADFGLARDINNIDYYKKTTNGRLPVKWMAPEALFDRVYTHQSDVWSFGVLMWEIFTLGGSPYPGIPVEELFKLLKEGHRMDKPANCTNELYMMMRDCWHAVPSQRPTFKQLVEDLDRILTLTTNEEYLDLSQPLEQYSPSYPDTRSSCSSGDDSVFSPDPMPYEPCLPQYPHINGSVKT

As usually defined, the Kd is the free concentration of one partner at which half of the binding sites on the other are occupied at equilibrium, for simple one-to-one binding. Low readings indicate tighter binding, high ones weaker binding. Substance “PLCγ1_(2SH2) (from UniProt P19174 545-791) (domain or fragment)” displayed a Kd of 0.223 µM.

On to “SHP2_(2SH2) (from UniProt Q06124 1-221) (domain or fragment)”, for which the Kd was found to be 25.1 µM.
